As usually defined, the Km is the substrate concentration at which the rate is half of its maximum.

The test system of data set [1] is CCCCN1C(=O)c2cccc3c(NC(=O)[C@@H]4CCCN4C(=O)CN)ccc(c23)C1=O. Description: purified protein. Conditions: Gly-Pro group cleaved by DPP-IV to release BAN.
Data set [2] has as its system Cc1cc(=O)oc2cc(NC(=O)[C@@H]3CCCN3C(=O)CN)ccc12. Briefly: purified protein.

In the case of “DPP-IV (dipeptidyl peptidase IV) (Homo sapiens)”, the Michaelis-Menten constant (Km) in data set [1] was 42.93 µM; in data set [2], 237.80 µM.

The values above are taken from publication PMC7127234.
